Data taken from patent publication US12233135B2, “Therapeutic constructs for treating cancer” (PRECISION MOLECULAR INC., priority 2018, dated 2025).

Tested on: B16F10-Red-FLuc mouse melanoma cells
Assay: Syngeneic model of experimental metastasis to the lung using B16F10-Red-FLuc cells
Format: in vivo
Settings: Example 9
Description: B16F10-Red-FLuc mouse melanoma cells (Perkin Elmer, Waltham, MA, USA) were cultured in RPMI 1640 cell culture medium supplemented with 10% FBS, 1% GlutaMAX™, and 1% penicillin-streptomycin, and grown at 37° C. in a humidified cell culture incubator supplied with 5% CO2. The cells were harvested by trypsinization, washed twice in HBSS and counted (using trypan blue exclusion). The final cell density was adjusted with HBSS to 3.5×10e6 cells/mL. 100 μL of cell suspension, consisting of 3.5×10e5 cells, was discharged into the tail vein of mice at the start of the study (Day 0). Imaging was performed on study Day 5, when the presence of lung tumors was confirmed in sufficient animals to commence the study. Imaging was performed as described in Example 6.
9.5% Trehalose buffer and nanoparticles containing PEG-lucia, PEG-mIL12, PEG-TK-mIL12, PEG-mIL2-mIL12 and PEG-TK-mIL2-mIL12 (each 60 μg/vial) were reconstituted in 300 μL of nuclease-free water per vial on the day of dosing to give dosing solutions of 200 μg/mL. Formulated test articles were stored at 4° C. and used on day of reconstitution.
9.5% Trehalose buffer and nanoparticles containing PEG-lucia, PEG-mIL12, PEG-TK-mIL12, PEG-mIL2-mIL12 and PEG-TK-mIL2-mIL12 were administered via intravenous injection (i.v.) on Study Days 5, 8, 11, 14 and 17. Treatments were administered at a dose of 2 mg/kg in a dosing volume of 10 mL/kg on Study Days 5, 11, 14 and 17. Due to declining body weight in all groups apart from the vehicle control at Day 6, the dose was reduced to 1 mg/kg in 5 mL/kg for the dose administered on Study Day 8. Dosing then resumed at 2 mg/kg in 10 mL/kg on Study Day 11 as per protocol.
The anti-tumor effect of nanoparticles containing PEG-mIL12 and expressing mIL-12 was compared to recombinant mIL-12 protein administered subcutaneously. The experimental design was as Example 8 but nanoparticles were prepared at N/P=4 and N/P=6 ratios. Nanoparticles were dosed as before for N/P=6, however, for the N/P=4 formulation the dose was maintained at 2 mg/kg in 10 mL/kg at day 8. […]

B1: recombinant mIL-12: recombinant mIL-12 protein (PeproTech) administered subcutaneously (protein, UniProt P43431 23-215; P43432 23-335, looked up)
Interleukin-12 subunit alpha: RVIPVSGPARCLSQSRNLLKTTDDMVKTAREKLKHYSCTAEDIDHEDITRDQTSTLKTCLPLELHKNESCLATRETSSTTRGSCLPPQKTSLMMTLCLGSIYEDLKMYQTEFQAINAALQNHNHQQIILDKGMLVAIDELMQSLNHNGETLRQKPPVGEADPYRVKMKLCILLHAFSTRVVTINRVMGYLSSA
Interleukin-12 subunit beta: MWELEKDVYVVEVDWTPDAPGETVNLTCDTPEEDDITWTSDQRHGVIGSGKTLTITVKEFLDAGQYTCHKGGETLSHSHLLLHKKENGIWSTEILKNFKNKTFLKCEAPNYSGRFTCSWLVQRNMDLKFNIKSSSSSPDSRAVTCGMASLSAEKVTLDQRDYEKYSVSCQEDVTCPTAEETLPIELALEARQQNKYENYSTSFFIRDIIKPDPPKNLQMKPLKNSQVEVSWEYPDSWSTPHSYFSLKFFVRIQRKKEKMKETEEGCNQKGAFLVEKTSTEVQCKGGNVCVQAQDRYYNSSCSKWACVPCRVRS
For B1, which “Median survival compared with Trehalose control” value (Log-rank test, p≤0.01 for PEG-mIL12 formulations, p≤0.05 for recombinant mIL-12) is on record?
The value was “significantly longer”.

What about the “tumor growth by luminescence compared with 9.5% Trehalose control” value (Study Day 19) of the same molecule?
The value was “significant (p≤0.05) inhibition of tumor growth”.

What about the Median survival time (nanoparticles 2 mg/kg i.v., recombinant mIL-12 s.c. 4 μg/kg then 12 μg/kg, Trehalose control 22.0 days) of the same molecule?
Its Median survival time is 25.0 days.
